Results taken from US20110195896A1, “ISOFORM-SPECIFIC INSULIN ANALOGUES” (CASE WESTERN RESERVE UNIVERSITY, priority 2008, published 2011).

Tests used:
[1] = target: human insulin receptor isoform B (human) (UniProt P06213); assay: competitive displacement of 125I-human insulin, FLAG-tagged receptor captured on anti-FLAG plate; conditions: scale: % of the affinity of human insulin for IR-A
[2] = target: human insulin receptor isoform B (human) (UniProt P06213); assay: competitive displacement of 125I-insulin from receptor

Sequence of His^A8, Asp^B10, Asp^B28, Pro^B29 insulin (two chain analogue) (ligand) (chain): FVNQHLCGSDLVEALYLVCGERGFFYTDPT
Sequence of His^A8, Asp^B10, Asp^B28, Pro^B29 insulin (two chain analogue) (ligand) (chain): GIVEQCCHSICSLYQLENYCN

relative affinity [1] | Kd [2] [nM] | relative affinity (relative to human insulin) [2] | Substance
0.7 |  |  | Insulin-like Growth Factor 1 (from UniProt P05019 49-118) (ligand)
 | 0.01 | 4.7 | His^A8, Asp^B10, Asp^B28, Pro^B29 insulin (two chain analogue) (ligand)
4 |  |  | insulin-like growth factor II (from UniProt P01344 25-91) (ligand)
